Test results from US20250019439A1 (Adimab, published 2025).

Legend:
ADI-26916 IgG = target: T1, ADI-26916 IgG; assay: SPR Carterra avidity, yeast anti-ID
T1 construct: anti-CD3 IgG
Method: (§1) Kinetic analysis was conducted at 25° C. in an HBSTE running buffer system (Carterra Cat #3630) using a Carterra LSA (Carterra USA, Salt Lake City, UT). The sample compartment was maintained at 20° C. for the duration of each experiment.
(§2) For antibody capture experiments, a goat anti-human Fc antibody (Jackson ImmunoResearch) was covalently coupled to an HC30M sensor chip surface via standard amine coupling (1:1 EDC:NHS) and then blocked with ethanolamine (1.0 M, pH 8.5). Covalent coupling steps were performed in 25 mM MES buffer (Carterra, Cat #3625) plus 0.05% Tween20. The anti-CD3 antibodies (100 nM in running buffer) were flowed over discrete regions of interest on the chip surface for 5 minutes. […] Dissociation of the anti-idiotype antibodies was monitored for 300s. Several blank buffer samples were injected over the entire chip surface at the start of each non-regenerative kinetic cycle. The preceding blank buffer injection was used for blank surface subtraction. At the end of each non-regenerative kinetic cycle, all surfaces were regenerated via two 30s injections of 10 mM glycine, pH 1.7.
(§3) For data processing and fitting, sensorgrams were double reference subtracted with a baseline drift correction of 4 RU. Sensorgrams were y-aligned and baseline corrected, filtered and cropped to include only the association and dissociation steps. Data was fitted to a 1:1 binding model using Carterra Kinetics Data Analysis software version 1.7.1.3055.

ADI-70326 = target: T2, ADI-70326; assay: SPR Carterra avidity, yeast anti-ID
T2 construct: anti-CD3 antibody made in CHO cells, captured by anti-human Fc
T2 sequence (VH, as listed by the source limits assumed, chain 1 of 2): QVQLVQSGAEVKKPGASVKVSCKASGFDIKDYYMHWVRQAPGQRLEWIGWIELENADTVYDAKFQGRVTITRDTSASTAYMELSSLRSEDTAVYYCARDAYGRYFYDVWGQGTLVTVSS
T2 sequence (VL, as listed by the source limits assumed, chain 2 of 2): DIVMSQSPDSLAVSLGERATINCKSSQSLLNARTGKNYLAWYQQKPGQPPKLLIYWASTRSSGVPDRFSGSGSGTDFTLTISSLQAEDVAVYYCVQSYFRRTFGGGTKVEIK
Method: as §1, §2, §3

ADI-74968 = target: T3, ADI-74968; assay: SPR Carterra avidity, yeast anti-ID
T3 construct: pH-dependent anti-CD3 antibody made in CHO cells
T3 sequence (VH, as listed by the source, chain 1 of 2): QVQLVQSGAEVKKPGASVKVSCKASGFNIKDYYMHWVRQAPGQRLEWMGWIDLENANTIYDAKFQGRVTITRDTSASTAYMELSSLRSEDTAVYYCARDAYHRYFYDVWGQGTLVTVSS
T3 sequence (VL, as listed by the source, chain 2 of 2): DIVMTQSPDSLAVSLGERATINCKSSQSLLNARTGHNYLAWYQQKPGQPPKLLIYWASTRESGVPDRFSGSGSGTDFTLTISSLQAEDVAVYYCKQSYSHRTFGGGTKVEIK
Method: as §1, §2, §3

ADI-26924 = target: T4, ADI-26924; assay: SPR Carterra avidity, yeast anti-ID
T4 construct: anti-CD3 antibody made in CHO cells, captured by anti-human Fc
Method: as §1, §2, §3

ADI-76362 = target: T5, ADI-76362; assay: SPR Carterra avidity, yeast anti-ID
T5 construct: anti-CD3 antibody made in CHO cells, captured by anti-human Fc
Method: as §1, §2, §3

ADI-76358 = target: T6, ADI-76358; assay: SPR Carterra avidity, yeast anti-ID
T6 construct: anti-CD3 antibody made in CHO cells, captured by anti-human Fc
Method: as §1, §2, §3

ADI-26921 IgG [1] = target: T7, ADI-26921 IgG; assay: SPR Carterra avidity, yeast anti-ID
T7 construct: anti-CD3 IgG
T7 sequence (VH, as listed by the source limits assumed, chain 1 of 2): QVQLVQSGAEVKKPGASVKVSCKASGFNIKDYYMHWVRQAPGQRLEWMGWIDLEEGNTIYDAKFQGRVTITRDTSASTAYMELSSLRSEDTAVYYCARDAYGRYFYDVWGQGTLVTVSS
T7 sequence (VL, as listed by the source limits assumed, chain 2 of 2): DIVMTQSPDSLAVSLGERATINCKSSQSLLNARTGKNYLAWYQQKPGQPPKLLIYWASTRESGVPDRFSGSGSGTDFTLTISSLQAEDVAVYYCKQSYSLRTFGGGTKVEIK
Method: as §1, §2, §3

ADI-48592 = target: T8, ADI-48592; assay: SPR Carterra avidity, yeast anti-ID
T8 construct: pH-dependent anti-CD3 antibody made in CHO cells
T8 sequence (VH, as listed by the source, chain 1 of 2): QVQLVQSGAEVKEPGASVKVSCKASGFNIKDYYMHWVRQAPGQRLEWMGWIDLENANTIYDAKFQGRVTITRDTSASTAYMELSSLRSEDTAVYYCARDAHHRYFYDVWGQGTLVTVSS
T8 sequence (VL, as listed by the source, chain 2 of 2): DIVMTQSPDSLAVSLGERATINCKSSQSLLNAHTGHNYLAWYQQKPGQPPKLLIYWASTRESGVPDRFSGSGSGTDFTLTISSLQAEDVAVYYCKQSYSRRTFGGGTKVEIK
Method: as §1, §2, §3

ADI-74967 [2] = target: T9, ADI-74967; assay: SPR Carterra avidity, yeast anti-ID
T9 construct: pH-dependent anti-CD3 antibody made in CHO cells
Method: as §1, §2, §3

ADI-26943 = target: T10, ADI-26943; assay: SPR Carterra avidity, yeast anti-ID
T10 construct: anti-CD3 antibody made in CHO cells, captured by anti-human Fc
T10 sequence (VH, as listed by the source, chain 1 of 2): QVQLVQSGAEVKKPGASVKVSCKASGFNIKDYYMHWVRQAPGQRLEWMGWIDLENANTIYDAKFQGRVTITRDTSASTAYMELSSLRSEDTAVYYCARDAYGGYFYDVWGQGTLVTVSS
T10 sequence (VL, as listed by the source, chain 2 of 2): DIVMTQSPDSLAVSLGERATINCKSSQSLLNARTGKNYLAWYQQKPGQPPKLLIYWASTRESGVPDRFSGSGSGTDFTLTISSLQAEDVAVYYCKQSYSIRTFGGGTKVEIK
Method: as §1, §2, §3

ADI-26915 = target: T11, ADI-26915; assay: SPR Carterra avidity, yeast anti-ID
T11 construct: anti-CD3 antibody made in CHO cells, captured by anti-human Fc
Method: as §1, §2, §3

ADI-76359 [3] = target: T12, ADI-76359; assay: SPR Carterra avidity, yeast anti-ID
T12 construct: anti-CD3 antibody made in CHO cells, captured by anti-human Fc
Method: as §1, §2, §3

ADI-48650 = target: T13, ADI-48650; assay: SPR Carterra avidity, yeast anti-ID
T13 construct: pH-dependent anti-CD3 antibody made in CHO cells
T13 sequence (VH, as listed by the source, chain 1 of 2): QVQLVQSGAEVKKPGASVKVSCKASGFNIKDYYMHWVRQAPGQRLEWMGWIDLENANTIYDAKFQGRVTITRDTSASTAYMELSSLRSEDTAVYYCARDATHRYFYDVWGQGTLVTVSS
T13 sequence (VL, as listed by the source, chain 2 of 2): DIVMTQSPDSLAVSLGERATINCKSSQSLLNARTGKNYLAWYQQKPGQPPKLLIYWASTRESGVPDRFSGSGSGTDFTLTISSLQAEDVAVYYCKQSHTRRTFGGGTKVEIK
Method: as §1, §2, §3

ADI-70330 = target: T14, ADI-70330; assay: SPR Carterra avidity, yeast anti-ID
T14 construct: anti-CD3 antibody made in CHO cells, captured by anti-human Fc
T14 sequence (VH, as listed by the source limits assumed, chain 1 of 2): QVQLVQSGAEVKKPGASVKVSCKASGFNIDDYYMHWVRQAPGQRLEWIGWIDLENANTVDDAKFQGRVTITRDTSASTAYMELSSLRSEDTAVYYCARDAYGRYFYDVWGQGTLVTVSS
Method: as §1, §2, §3

ADI-67447 = target: T15, ADI-67447; assay: SPR Carterra avidity, yeast anti-ID
T15 construct: anti-CD3 antibody made in CHO cells, captured by anti-human Fc
T15 sequence (VH, as listed by the source limits assumed, chain 1 of 2): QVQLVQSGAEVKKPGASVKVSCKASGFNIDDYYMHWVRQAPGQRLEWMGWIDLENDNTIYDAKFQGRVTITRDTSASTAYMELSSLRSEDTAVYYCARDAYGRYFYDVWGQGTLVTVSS
T15 sequence (VL, as listed by the source limits assumed, chain 2 of 2): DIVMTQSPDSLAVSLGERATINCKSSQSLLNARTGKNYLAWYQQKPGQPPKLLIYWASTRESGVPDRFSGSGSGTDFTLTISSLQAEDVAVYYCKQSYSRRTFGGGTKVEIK
Method: as §1, §2, §3

ADI-26906 IgG = target: T16, ADI-26906 IgG; assay: SPR Carterra avidity, yeast anti-ID
T16 construct: anti-CD3 IgG
Method: as §1, §2, §3

ADI-76360 = target: T17, ADI-76360; assay: SPR Carterra avidity, yeast anti-ID
T17 construct: anti-CD3 antibody made in CHO cells, captured by anti-human Fc
Method: as §1, §2, §3

ADI-67445 = target: T18, ADI-67445; assay: SPR Carterra avidity, yeast anti-ID
T18 construct: anti-CD3 antibody made in CHO cells, captured by anti-human Fc
T18 sequence (VH, as listed by the source limits assumed, chain 1 of 2): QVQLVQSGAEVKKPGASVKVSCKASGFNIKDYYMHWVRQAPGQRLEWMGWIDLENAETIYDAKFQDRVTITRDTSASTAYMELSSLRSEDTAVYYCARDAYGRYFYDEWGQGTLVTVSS
Method: as §1, §2, §3

ADI-67450 = target: T19, ADI-67450; assay: SPR Carterra avidity, yeast anti-ID
T19 construct: anti-CD3 antibody made in CHO cells, captured by anti-human Fc
T19 sequence (VH, as listed by the source limits assumed, chain 1 of 2): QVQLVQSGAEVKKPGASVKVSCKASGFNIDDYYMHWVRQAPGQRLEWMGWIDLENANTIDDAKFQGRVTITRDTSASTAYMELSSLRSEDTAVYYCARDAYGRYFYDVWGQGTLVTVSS
Method: as §1, §2, §3

CTL-62223 = target: T20, CTL-62223; assay: SPR Carterra avidity, yeast anti-ID
T20 construct: also called mosunetuzumab
T20 sequence (VH, as listed by the source, chain 1 of 2): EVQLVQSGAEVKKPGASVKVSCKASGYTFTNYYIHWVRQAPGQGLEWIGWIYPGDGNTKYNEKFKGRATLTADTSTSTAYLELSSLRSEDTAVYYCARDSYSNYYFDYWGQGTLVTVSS
T20 sequence (VL, as listed by the source, chain 2 of 2): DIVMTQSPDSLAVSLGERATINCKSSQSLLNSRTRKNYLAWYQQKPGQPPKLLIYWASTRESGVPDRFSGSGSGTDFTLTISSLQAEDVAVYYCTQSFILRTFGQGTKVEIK
Method: as §1, §2, §3

ADI-26913 IgG = target: T21, ADI-26913 IgG; assay: SPR Carterra avidity, yeast anti-ID
T21 construct: anti-CD3 IgG
Method: as §1, §2, §3

ADI-48576 = target: T22, ADI-48576; assay: SPR Carterra avidity, yeast anti-ID
T22 construct: pH-dependent anti-CD3 antibody made in CHO cells
T22 sequence (VH, as listed by the source, chain 1 of 2): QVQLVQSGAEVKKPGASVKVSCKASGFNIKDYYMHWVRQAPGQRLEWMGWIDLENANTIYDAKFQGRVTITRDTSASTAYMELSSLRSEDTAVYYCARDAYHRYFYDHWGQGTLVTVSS
T22 sequence (VL, as listed by the source, chain 2 of 2): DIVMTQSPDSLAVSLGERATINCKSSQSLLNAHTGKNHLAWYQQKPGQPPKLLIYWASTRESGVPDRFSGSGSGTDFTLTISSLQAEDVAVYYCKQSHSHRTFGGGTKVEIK
Method: as §1, §2, §3

ADI-76361 = target: T23, ADI-76361; assay: SPR Carterra avidity, yeast anti-ID
T23 construct: anti-CD3 antibody made in CHO cells, captured by anti-human Fc
Method: as §1, §2, §3

ADI-26909 = target: T24, ADI-26909; assay: SPR Carterra avidity, yeast anti-ID
T24 construct: anti-CD3 antibody made in CHO cells, captured by anti-human Fc
T24 sequence (VH, as listed by the source limits assumed, chain 1 of 2): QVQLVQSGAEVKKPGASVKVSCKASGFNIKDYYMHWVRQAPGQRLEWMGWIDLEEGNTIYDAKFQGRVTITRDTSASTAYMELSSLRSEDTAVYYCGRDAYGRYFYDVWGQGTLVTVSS
Method: as §1, §2, §3

ADI-26912 = target: T25, ADI-26912; assay: SPR Carterra avidity, yeast anti-ID
T25 construct: anti-CD3 antibody made in CHO cells, captured by anti-human Fc
T25 sequence (VH, as listed by the source, chain 1 of 2): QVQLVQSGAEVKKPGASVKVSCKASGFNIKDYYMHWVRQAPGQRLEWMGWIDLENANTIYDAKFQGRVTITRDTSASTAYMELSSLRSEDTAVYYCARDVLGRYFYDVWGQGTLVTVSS
Method: as §1, §2, §3

ADI-26920 IgG [4] = target: T26, ADI-26920 IgG; assay: SPR Carterra avidity, yeast anti-ID
T26 construct: anti-CD3 IgG
Method: as §1, §2, §3

ADI-70327 = target: T27, ADI-70327; assay: SPR Carterra avidity, yeast anti-ID
T27 construct: anti-CD3 antibody made in CHO cells, captured by anti-human Fc
Method: as §1, §2, §3

ADI-76357 = target: T28, ADI-76357; assay: SPR Carterra avidity, yeast anti-ID
T28 construct: anti-CD3 antibody made in CHO cells, captured by anti-human Fc
T28 sequence (VH, as listed by the source, chain 1 of 2): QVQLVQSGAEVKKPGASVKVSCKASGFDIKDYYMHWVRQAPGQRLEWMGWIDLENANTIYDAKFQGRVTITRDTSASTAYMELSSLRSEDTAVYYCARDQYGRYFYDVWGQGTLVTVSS
Method: as §1, §2, §3

ADI-74966 = target: T29, ADI-74966; assay: SPR Carterra avidity, yeast anti-ID
T29 construct: pH-dependent anti-CD3 antibody made in CHO cells
Method: as §1, §2, §3

ADI-74965 = target: T30, ADI-74965; assay: SPR Carterra avidity, yeast anti-ID
T30 construct: pH-dependent anti-CD3 antibody made in CHO cells
T30 sequence (VL, as listed by the source, chain 2 of 2): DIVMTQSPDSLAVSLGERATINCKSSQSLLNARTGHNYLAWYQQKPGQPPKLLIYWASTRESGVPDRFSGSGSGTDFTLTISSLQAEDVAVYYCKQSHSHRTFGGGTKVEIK
Method: as §1, §2, §3

ADI-48587 = target: T31, ADI-48587; assay: SPR Carterra avidity, yeast anti-ID
T31 construct: pH-dependent anti-CD3 antibody made in CHO cells
Method: as §1, §2, §3

ADI-50024 = target: T32, ADI-50024; assay: SPR Carterra avidity, yeast anti-ID
T32 construct: anti-CD3 antibody made in CHO cells, captured by anti-human Fc
T32 sequence (VH, as listed by the source limits assumed, chain 1 of 2): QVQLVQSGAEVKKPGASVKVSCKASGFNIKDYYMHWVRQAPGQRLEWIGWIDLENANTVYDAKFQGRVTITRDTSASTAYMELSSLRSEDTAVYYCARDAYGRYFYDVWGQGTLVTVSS
Method: as §1, §2, §3

ADI-22523 IgG = target: T33, ADI-22523 IgG; assay: BLI; tip anti-ID IgG, solution ADI-22523 IgG
T33 construct: anti-CD3 IgG
Method: (§4) ForteBio affinity measurements were performed generally as previously described (Estep et al., MAbs. 2013 5(2):270-8). Briefly, ForteBio affinity measurements were performed by loading antibody IgG or Fabs on-line onto AHC sensors. Sensors were equilibrated off-line in assay buffer for 30 minutes and then monitored on-line for 60 seconds for baseline establishment. For avid binding measurement, sensors with loaded antibodies were exposed to IgG or Fab solutions for 3 minutes, afterwards they were transferred to assay buffer for 3 minutes for off-rate measurement. Kinetics data were fit using a 1:1 binding model in the data analysis software provided by ForteBio to obtain equilibrium dissociation constant (KD=koff/kₒₙ) values. In each column, tip-immobilized antibodies are listed first and solution antibodies second.

CTL-62227 = target: T34, CTL-62227; assay: SPR Carterra, yeast anti-ID
T34 construct: also called odronextamab
Method: as §1, §2, §3

CTL-62228 = target: T35, CTL-62228; assay: SPR Carterra, yeast anti-ID
T35 construct: also called glofitamab
Method: as §1, §2, §3

CTL-62240 = target: T36, CTL-62240; assay: SPR Carterra, yeast anti-ID
T36 construct: also called ONO-4685
Method: as §1, §2, §3

ADI-26919 [5] = target: T37, ADI-26919; assay: SPR Carterra avidity, yeast anti-ID, *koff limit
T37 construct: anti-CD3 antibody made in CHO cells, captured by anti-human Fc
Method: as §1, §2, §3

ADI-22523 Fab = target: T38, ADI-22523 Fab; assay: BLI; tip anti-ID IgG, solution ADI-22523 Fab
T38 construct: anti-CD3 Fab by papain digestion of the IgG
Method: as §4

ADI-26919 [6] = target: T37, ADI-26919; assay: SPR Carterra avidity, yeast anti-ID
Method: as §1, §2, §3

ADI-26921 IgG [7] = target: T7, ADI-26921 IgG; assay: SPR Carterra avidity, yeast anti-ID, *koff limit
Method: as §1, §2, §3

ADI-74967 [8] = target: T9, ADI-74967; assay: SPR Carterra avidity, yeast anti-ID, *koff limit
Method: as §1, §2, §3

ADI-76359 [9] = target: T12, ADI-76359; assay: SPR Carterra avidity, yeast anti-ID, *koff limit
Method: as §1, §2, §3

ADI-26920 IgG [10] = target: T26, ADI-26920 IgG; assay: SPR Carterra avidity, yeast anti-ID, *koff limit
Method: as §1, §2, §3

T1 sequence (VH, as listed by the source, chain 1 of 2): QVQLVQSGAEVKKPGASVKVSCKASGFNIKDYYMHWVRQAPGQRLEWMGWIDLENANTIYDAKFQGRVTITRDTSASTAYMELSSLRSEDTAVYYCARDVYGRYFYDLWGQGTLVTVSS

Binder	Kd (ADI-26916 IgG) [nM]	binding result (ADI-70326)	Kd (ADI-26924) [nM]	Kd (ADI-76362) [nM]	binding result (ADI-48592)	Kd (ADI-26943) [nM]	binding result (ADI-48650)	Kd (ADI-67447) [nM]	Kd (ADI-26906 IgG) [nM]	Kd (ADI-76360) [nM]	Kd (ADI-67445) [nM]	Kd (CTL-62223) [nM]	Kd (ADI-26913 IgG) [nM]	binding result (ADI-48576)	Kd (ADI-76361) [nM]	Kd (ADI-26909) [nM]	binding result (ADI-26912)	Kd (ADI-76357) [nM]	Kd (ADI-74966) [nM]	binding result (ADI-74965)	other results
ADI-34132 (antibody, V domains shown, anti-ID IgG) VH: QVQLVQSGAEVKKPGSSVKVSCKASGGTFSSYAISWVRQAPGQGLEWMGGIIPIFGTANYAQKFQGRVTITADESTSTAYMELSSLRSEDTAVYYCARGAPNYYGSGGYDDGWFDPWGQGTLVTVSS VL: DIQLTQSPSSLSASVGDRVTITCRASQSISSYLNWYQQKPGKAPKLLIYAASNLQSGVPSRFSGSGSGTDFTLTISSLQPEDFATYYCQQTLHTPITFGGGTKVEIK	0.6	binds	0.2	0.82	binds	0.15	binds	0.56	0.16	0.61	0.65	0.99	0.93	binds	0.15	0.9	binds	0.57	0.58	binds	binding result (ADI-74968): binds; binding result (ADI-76358): binds; Kd (ADI-26921 IgG [1]): 0.36 nM; Kd (ADI-74967 [2]): 0.28 nM; binding result (ADI-26915): binds; Kd (ADI-76359 [3]): 0.12 nM; binding result (ADI-70330): binds; binding result (ADI-67450): binds; Kd (ADI-26920 IgG [4]): 0.15 nM; binding result (ADI-70327): binds; binding result (ADI-48587): binds; Kd (ADI-50024): 0.35 nM; Kd (ADI-22523 IgG): 84.9 nM; binding result (CTL-62227): no binding (tested: up to 200 nM); binding result (CTL-62228): no binding (tested: up to 200 nM); binding result (CTL-62240): no binding (tested: up to 200 nM); Kd (ADI-26919 [5]): 0.044 nM
ADI-34137 (antibody, V domains shown, anti-ID IgG) VH: QVQLVQSGAEVKKPGSSVKVSCKASGGTFSSYAISWVRQAPGQGLEWMGGIIPIFGTANYAQKFQGRVTITADESTSTAYMELSSLRSEDTAVYYCARGAPNYYGSGGYDDGWFDPWGQGTLVTVSS VL: EIVLTQSPGTLSLSPGERATLSCRASQSVSSSYLAWYQQKPGQAPRLLIYGASSRATGIPDRFSGSGSGTDFTLTISRLEPEDFAVYYCQQFGRFPTFGGGTKVEIK	0.31	binds	0.19	0.22	binds	0.17	binds	0.22	0.33	0.082	0.37	1.8	0.3	binds	0.054	0.32	binds	0.086	0.21	binds	Kd (ADI-22523 Fab): 14.8 nM; Kd (ADI-26919 [6]): 0.14 nM; Kd (ADI-74968): 0.76 nM; Kd (ADI-76358): 0.96 nM; Kd (ADI-26915): 14 nM; Kd (ADI-70330): 0.3 nM; Kd (ADI-67450): 0.92 nM; Kd (ADI-70327): 0.95 nM; Kd (ADI-48587): 0.88 nM; Kd (ADI-50024): 0.39 nM; Kd (ADI-22523 IgG): 0.63 nM; Kd (ADI-26921 IgG [7]): 0.048 nM; Kd (ADI-74967 [8]): 0.12 nM; Kd (ADI-76359 [9]): 0.059 nM; Kd (ADI-26920 IgG [10]): 0.088 nM
